Results on three molecules are retold here after paper doi:10.1101/2021.04.12.439405 (bioRxiv, 2021).

Holding throughout (assay): native MS
Series [1] deals with MukB^N (MukB Neck) (E. coli).
Series [2] concerns the target MukB^HN (MukB Head-Neck) (E. coli).
Series [3] concerns the molecule itself.

In the case of MukB^N (MukB Neck) (domain or fragment), the stoichiometry N in series [1] came out at 2.
Regarding “Acyl Carrier Protein (AcpP), co-purified with MukB proteins (from UniProt P0A6A8 1-78) (natural protein)”, the stoichiometry N in series [1] and in series [2] was 1 in each case.

B1: MukB-His (wild type MukB) (natural protein, E. coli, UniProt P22523 1-1486, looked up)
chain: MIERGKFRSLTLINWNGFFARTFDLDELVTTLSGGNGAGKSTTMAAFVTALIPDLTLLHFRNTTEAGATSGSRDKGLHGKLKAGVCYSMLDTINSRHQRVVVGVRLQQVAGRDRKVDIKPFAIQGLPMSVQPTQLVTETLNERQARVLPLNELKDKLEAMEGVQFKQFNSITDYHSLMFDLGIIARRLRSASDRSKFYRLIEASLYGGISSAITRSLRDYLLPENSGVRKAFQDMEAALRENRMTLEAIRVTQSDRDLFKHLISEATNYVAADYMRHANERRVHLDKALEFRRELHTSRQQLAAEQYKHVDMARELAEHNGAEGDLEADYQAASDHLNLVQTALRQQEKIERYEADLDELQIRLEEQNEVVAEAIERQQENEARAEAAELEVDELKSQLADYQQALDVQQTRAIQYNQAIAALNRAKELCHLPDLTADCAAEWLETFQAKELEATEKMLSLEQKMSMAQTAHSQFEQAYQLVVAINGPLARNEAWDVARELLREGVDQRHLAEQVQPLRMRLSELEQRLREQQEAERLLADFCKRQGKNFDIDELEALHQELEARIASLSDSVSNAREERMALRQEQEQLQSRIQSLMQRAPVWLAAQNSLNQLSEQCGEEFTSSQDVTEYLQQLLEREREAIVERDEVGARKNAVDEEIERLSQPGGSEDQRLNALAERFGGVLLSEIYDDVSLEDAPYFSALYGPSRHAIVVPDLSQVTEHLEGLTDCPEDLYLIEGDPQSFDDSVFSVDELEKAVVVKIADRQWRYSRFPEVPLFGRAARESRIESLHAEREVLSERFATLSFDVQKTQRLHQAFSRFIGSHLAVAFESDPEAEIRQLNSRRVELERALSNHENDNQQQRIQFEQAKEGVTALNRILPRLNLLADDSLADRVDEIRERLDEAQEAARFVQQFGNQLAKLEPIVSVLQSDPEQFEQLKEDYAYSQQMQRDARQQAFALTEVVQRRAHFSYSDSAEMLSGNSDLNEKLRERLEQAEAERTRAREALRGHAAQLSQYNQVLASLKSSYDTKKELLNDLQRELQDIGVRADSGAEERARIRRDELHAQLSNNRSRRNQLEKALTFCEAEMDNLTRKLRKLERDYFEMREQVVTAKAGWCAVMRMVKDNGVERRLHRRELAYLSADDLRSMSDKALGALRLAVADNEHLRDVLRMSEDPKRPERKIQFFVAVYQHLRERIRQDIIRTDDPVEAIEQMEIELSRLTEELTSREQKLAISSRSVANIIRKTIQREQNRIRMLNQGLQNVSFGQVNSVRLNVNVRETHAMLLDVLSEQHEQHQDLFNSNRLTFSEALAKLYQRLNPQIDMGQRTPQTIGEELLDYRNYLEMEVEVNRGSDGWLRAESGALSTGEAIGTGMSILVMVVQSWEDESRRLRGKDISPCRLLFLDEAARLDARSIATLFELCERLQMQLIIAAPENISPEKGTTYKLVRKVFQNTEHVHVVGLRGFAPQLPETLPGTDEAPSQAS
As for B1, in series [3], the binding result was “binds”.
